In publication doi:10.1101/2022.06.15.496202 one finds stoichiometry N data, which are given here for 1 substance.

This test has as its target Cas7c (D. vulgaris). The experiment in a line: cryo-EM structure.

Cas7c (natural protein) had a stoichiometry N of 7.

The stoichiometry N is a count of units in the complex or per binding partner.
